Experimental data as given in US20230183713A1, “SITE-SPECIFIC RECOMBINASES FOR EFFICIENT AND SPECIFIC GENOME EDITING” (TECHNISCHE UNIVERSITÄt DRESDEN, published 2023).

Key:
[1] = molecular target: T1, Cre recombinase monomer with W315C mutation
T1 chain: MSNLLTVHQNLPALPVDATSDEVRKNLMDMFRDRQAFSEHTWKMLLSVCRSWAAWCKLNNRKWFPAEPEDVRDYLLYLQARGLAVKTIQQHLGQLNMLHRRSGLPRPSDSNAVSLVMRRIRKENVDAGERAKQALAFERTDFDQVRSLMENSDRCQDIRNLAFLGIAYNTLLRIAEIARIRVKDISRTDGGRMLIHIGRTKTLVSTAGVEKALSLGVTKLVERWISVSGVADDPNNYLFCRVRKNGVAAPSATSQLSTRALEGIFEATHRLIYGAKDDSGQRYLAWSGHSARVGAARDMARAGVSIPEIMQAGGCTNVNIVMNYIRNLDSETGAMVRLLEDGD

[2] = molecular target: T2, Cre recombinase monomer with W315I mutation
T2 chain: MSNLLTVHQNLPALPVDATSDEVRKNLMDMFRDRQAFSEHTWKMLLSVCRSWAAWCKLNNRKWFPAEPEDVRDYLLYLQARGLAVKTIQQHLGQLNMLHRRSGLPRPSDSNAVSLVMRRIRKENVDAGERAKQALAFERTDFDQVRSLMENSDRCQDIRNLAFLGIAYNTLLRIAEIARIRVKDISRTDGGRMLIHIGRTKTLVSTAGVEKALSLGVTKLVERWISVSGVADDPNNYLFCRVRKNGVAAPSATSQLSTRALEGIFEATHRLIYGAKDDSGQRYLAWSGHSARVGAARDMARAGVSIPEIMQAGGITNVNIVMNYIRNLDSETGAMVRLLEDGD

[3] = molecular target: T3, Cre recombinase monomer with W315V mutation
T3 chain: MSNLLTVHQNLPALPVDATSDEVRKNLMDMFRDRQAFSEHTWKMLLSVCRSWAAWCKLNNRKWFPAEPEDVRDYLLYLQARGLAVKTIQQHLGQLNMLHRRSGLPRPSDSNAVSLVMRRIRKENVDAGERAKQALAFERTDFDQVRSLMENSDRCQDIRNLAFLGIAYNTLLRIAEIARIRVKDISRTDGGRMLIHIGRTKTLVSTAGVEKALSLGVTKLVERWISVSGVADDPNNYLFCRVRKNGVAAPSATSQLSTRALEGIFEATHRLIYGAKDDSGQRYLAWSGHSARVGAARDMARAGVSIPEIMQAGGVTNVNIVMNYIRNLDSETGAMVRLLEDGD

[4] = molecular target: T4, Cre recombinase monomer with Y324A mutation
T4 chain: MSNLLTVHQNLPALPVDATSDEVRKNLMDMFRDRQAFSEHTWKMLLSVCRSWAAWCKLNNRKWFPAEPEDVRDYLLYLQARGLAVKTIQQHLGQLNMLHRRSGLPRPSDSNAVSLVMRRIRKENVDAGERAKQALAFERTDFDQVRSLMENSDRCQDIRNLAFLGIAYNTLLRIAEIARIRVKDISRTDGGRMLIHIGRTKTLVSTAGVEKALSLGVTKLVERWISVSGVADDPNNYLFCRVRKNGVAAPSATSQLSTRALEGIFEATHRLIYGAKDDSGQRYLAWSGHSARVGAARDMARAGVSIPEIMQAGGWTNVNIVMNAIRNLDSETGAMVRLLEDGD

[5] = molecular target: T5, Cre recombinase monomer with Y324F mutation
T5 chain: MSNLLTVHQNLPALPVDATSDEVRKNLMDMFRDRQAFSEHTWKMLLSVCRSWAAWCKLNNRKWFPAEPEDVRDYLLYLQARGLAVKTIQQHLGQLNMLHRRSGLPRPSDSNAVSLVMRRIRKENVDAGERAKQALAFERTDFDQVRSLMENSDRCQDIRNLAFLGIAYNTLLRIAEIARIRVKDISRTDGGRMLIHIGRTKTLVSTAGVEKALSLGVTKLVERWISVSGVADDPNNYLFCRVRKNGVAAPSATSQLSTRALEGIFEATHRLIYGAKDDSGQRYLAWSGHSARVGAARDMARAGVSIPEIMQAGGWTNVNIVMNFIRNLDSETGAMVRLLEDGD

[6] = molecular target: T6, Cre recombinase monomer with Y324K mutation
T6 chain: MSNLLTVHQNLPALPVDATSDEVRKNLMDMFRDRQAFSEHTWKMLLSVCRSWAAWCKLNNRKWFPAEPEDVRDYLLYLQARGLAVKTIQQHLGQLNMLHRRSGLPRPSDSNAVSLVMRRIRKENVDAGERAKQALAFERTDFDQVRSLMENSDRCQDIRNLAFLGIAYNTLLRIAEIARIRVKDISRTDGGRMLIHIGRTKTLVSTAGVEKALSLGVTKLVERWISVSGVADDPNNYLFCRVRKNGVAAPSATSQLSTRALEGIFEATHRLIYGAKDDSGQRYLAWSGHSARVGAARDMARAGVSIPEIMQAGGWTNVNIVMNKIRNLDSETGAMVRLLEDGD

[7] = molecular target: T7, Cre recombinase monomer with Y324M mutation
T7 chain: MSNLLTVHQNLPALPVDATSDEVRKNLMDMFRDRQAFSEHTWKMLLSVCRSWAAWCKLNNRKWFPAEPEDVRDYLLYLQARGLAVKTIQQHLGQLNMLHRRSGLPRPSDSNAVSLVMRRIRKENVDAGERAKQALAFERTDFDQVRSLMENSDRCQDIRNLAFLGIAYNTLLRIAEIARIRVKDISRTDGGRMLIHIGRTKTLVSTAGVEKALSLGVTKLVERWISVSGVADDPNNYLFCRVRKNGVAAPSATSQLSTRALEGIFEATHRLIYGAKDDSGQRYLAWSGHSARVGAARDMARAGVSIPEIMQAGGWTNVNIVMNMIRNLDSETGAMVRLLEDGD

[8] = molecular target: T8, Cre recombinase monomer with Y324Q mutation
T8 chain: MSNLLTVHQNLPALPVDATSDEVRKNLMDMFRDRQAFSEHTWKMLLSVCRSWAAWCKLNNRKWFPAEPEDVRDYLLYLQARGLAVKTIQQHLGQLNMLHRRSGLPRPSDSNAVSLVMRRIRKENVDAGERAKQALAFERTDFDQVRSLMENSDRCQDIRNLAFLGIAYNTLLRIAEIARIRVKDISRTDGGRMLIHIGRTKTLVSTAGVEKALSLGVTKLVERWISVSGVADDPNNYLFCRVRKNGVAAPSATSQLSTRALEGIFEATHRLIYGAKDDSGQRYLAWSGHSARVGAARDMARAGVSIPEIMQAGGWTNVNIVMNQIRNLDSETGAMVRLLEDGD

B1: Cre recombinase monomer with Q311R mutation (protein)
chain: MSNLLTVHQNLPALPVDATSDEVRKNLMDMFRDRQAFSEHTWKMLLSVCRSWAAWCKLNNRKWFPAEPEDVRDYLLYLQARGLAVKTIQQHLGQLNMLHRRSGLPRPSDSNAVSLVMRRIRKENVDAGERAKQALAFERTDFDQVRSLMENSDRCQDIRNLAFLGIAYNTLLRIAEIARIRVKDISRTDGGRMLIHIGRTKTLVSTAGVEKALSLGVTKLVERWISVSGVADDPNNYLFCRVRKNGVAAPSATSQLSTRALEGIFEATHRLIYGAKDDSGQRYLAWSGHSARVGAARDMARAGVSIPEIMRAGGWTNVNIVMNYIRNLDSETGAMVRLLEDGD
[1]
  Median dimer activity (recombination on loxP): 84%
[2]
  Median dimer activity (recombination on loxP): 92%
[3]
  Median dimer activity (recombination on loxP): 91%
[4]
  Median dimer activity (recombination on loxP): 93%
[5]
  Median dimer activity (recombination on loxP): 95%
[6]
  Median dimer activity (recombination on loxP): 85%
[7]
  Median dimer activity (recombination on loxP): 96%
[8]
  Median dimer activity (recombination on loxP): 72%
